{"source": "patent US20120219559A1", "about": "(Johns Hopkins, published 2012)", "binders": {"B1": {"name": "human ICOS, full length, expressed on cells (ICOS+293T cells) (receptor)", "chain": "EINGSANYEMFIFHNGGVQILCKYPDIVQQFKMQLLKGGQILCDLTKTKGSGNTVSIKSLKFCHSQLSNNSVSFFLYNLDHSHANYYFCNLSIFDPPPFKVTLTGGYLHIYESQLCCQLKFWLPIGCAAFVVVCILGCILICWLTKKKYSSSVHDPNGEYMFMRAVNTAKKSRLTDVTL", "notes": "This id also stands for ICOS on human T cells in the functional rows"}, "B2": {"name": "human B7-H7CRIg fusion protein (Fc fusion)", "chain": "LSVQQGPNLLQVRQGSQATLVCQVDQATAWERLRVKWTKDGAILCQPYITNGSLSLGVCGPQGRLSWQAPSHLTLQLDPVSLNHSGAYVCWAAVEIPELEEAEGNITRLFVDPDDPTQNRNRIASFPG", "notes": "also called B7-H67CRIg; not shown: Ig Fc tag; made from pMIgV or pHIgV plasmid"}, "B3": {"name": "human B7-2Ig fusion protein (Fc fusion, UniProt P42081 26-245, looked up)", "chain": "LKIQAYFNETADLPCQFANSQNQSLSELVVFWQDQENLVLNEVYLGKEKFDSVHSKYMGRTSFDSDSWTLRLHNLQIKDKGLYQCIIHHKKPTGMIRIHQMNSELSVLANFSQPEIVPISNITENVYINLTCSSIHGYPEPKKMSVLLRTKNSTIEYDGVMQKSQDNVTELYDVSISLSVSFPDVTSNMTIFCILETDKTRLLSSPFSIELEDPQPPPDH", "notes": "Bought from R&D Systems; Ig (Fc) part not given"}}, "key": {"[1]": {"biological_target": "T1, human B7-H2Ig fusion protein (human, UniProt O75144 19-258)", "T1 construct": "Ig (Fc) part not given", "T1 sequence": "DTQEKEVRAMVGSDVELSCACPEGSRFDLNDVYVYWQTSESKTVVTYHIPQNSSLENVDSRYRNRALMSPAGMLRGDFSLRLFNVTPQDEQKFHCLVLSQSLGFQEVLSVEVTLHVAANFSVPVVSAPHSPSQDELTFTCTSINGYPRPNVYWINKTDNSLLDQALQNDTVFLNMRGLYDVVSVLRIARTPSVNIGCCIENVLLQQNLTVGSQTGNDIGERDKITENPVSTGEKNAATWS", "assay": "flow cytometry on 293T cells transfected with human ICOS"}, "B7-DCIg": {"biological_target": "T2, B7-DCIg (Homo sapiens, UniProt Q9BQ51)", "T2 construct": "Ig fusion protein purchased from R&D systems; also called human B7-DCIg fusion protein", "T2 sequence (fusion protein, looked up)": "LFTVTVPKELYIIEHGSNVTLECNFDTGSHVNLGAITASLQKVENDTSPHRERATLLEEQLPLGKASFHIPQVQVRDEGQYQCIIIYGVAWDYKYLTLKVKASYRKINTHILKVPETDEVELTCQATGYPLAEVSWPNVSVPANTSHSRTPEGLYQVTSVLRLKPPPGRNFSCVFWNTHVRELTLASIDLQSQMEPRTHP", "assay": "CDS well image, 293T cells transfected with the human gene, stained with the human fusion protein"}, "[2]": {"biological_target": "B3", "assay": "CDS well image, 293T cells transfected with the human gene, stained with the human fusion protein"}, "[3]": {"biological_target": "T3, human B7-1Ig fusion protein (human, UniProt P33681 35-242)", "T3 construct": "Bought from R&D Systems; Ig (Fc) part not given", "T3 sequence (looked up)": "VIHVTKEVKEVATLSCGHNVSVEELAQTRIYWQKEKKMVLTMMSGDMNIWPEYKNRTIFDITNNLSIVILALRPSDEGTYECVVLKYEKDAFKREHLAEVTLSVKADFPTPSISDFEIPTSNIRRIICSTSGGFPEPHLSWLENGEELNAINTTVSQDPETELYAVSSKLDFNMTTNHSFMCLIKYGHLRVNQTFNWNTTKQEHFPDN", "assay": "CDS well image, 293T cells transfected with the human gene, stained with the human fusion protein"}, "B7-H1Ig": {"biological_target": "T4, B7-H1Ig (Homo sapiens, UniProt Q9NZQ7)", "T4 construct": "Ig fusion protein purchased from R&D systems; also called human B7-H1Ig fusion protein", "T4 sequence (Q9NZQ7 19-239 limits assumed)": "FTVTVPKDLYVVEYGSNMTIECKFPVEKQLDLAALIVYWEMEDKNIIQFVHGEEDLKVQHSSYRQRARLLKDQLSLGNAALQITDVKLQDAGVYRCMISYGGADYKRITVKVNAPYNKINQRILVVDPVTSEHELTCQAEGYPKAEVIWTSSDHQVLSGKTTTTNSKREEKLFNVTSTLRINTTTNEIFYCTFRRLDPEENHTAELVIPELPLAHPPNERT", "assay": "CDS well image, 293T cells transfected with the human gene, stained with the human fusion protein"}, "[4]": {"biological_target": "T5, human B7-H1 expressed on 293T cells (human, UniProt Q9NZQ7 19-290)", "T5 construct": "whole, on cells", "T5 sequence (Q9NZQ7 19-290)": "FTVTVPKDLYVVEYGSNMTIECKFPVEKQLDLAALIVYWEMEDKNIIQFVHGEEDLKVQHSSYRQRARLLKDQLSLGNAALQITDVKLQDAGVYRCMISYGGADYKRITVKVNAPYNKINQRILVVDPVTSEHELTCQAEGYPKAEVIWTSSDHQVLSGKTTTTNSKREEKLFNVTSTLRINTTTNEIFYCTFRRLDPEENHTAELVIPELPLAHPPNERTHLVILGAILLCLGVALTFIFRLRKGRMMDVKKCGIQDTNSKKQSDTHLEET", "assay": "flow cytometry on 293T cells transfected with B7-H1"}, "[5]": {"biological_target": "T6, human B7-H4 expressed on 293T cells (human, UniProt Q7Z7D3 25-282)", "T6 construct": "whole, on cells", "T6 sequence (looked up)": "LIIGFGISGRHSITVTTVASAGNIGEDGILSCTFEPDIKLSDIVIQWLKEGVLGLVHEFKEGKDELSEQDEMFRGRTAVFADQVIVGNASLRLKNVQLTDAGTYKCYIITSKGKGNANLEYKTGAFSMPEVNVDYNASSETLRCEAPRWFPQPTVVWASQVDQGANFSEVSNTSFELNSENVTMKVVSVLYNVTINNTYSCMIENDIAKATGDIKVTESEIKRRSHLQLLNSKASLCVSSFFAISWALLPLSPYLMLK", "assay": "flow cytometry on 293T cells transfected with B7-H4"}, "[6]": {"biological_target": "T7, human B7-H7, full length, expressed on transfected cells (B7-H7+ cells) (human, UniProt Q9UM44 23-414)", "T7 construct": "also called HHLA2", "T7 sequence": "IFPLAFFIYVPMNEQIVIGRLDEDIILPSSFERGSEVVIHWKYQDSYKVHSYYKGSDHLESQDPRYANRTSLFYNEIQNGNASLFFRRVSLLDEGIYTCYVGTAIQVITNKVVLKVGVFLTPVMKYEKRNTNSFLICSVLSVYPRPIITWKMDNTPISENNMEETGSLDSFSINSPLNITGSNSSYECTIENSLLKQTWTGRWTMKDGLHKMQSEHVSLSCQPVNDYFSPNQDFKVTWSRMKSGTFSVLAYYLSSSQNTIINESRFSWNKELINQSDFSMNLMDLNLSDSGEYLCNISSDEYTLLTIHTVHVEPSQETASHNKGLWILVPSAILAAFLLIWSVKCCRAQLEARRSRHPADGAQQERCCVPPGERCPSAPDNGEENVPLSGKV", "assay": "flow cytometry on B7-H7 transfected cells (sheet: B7-H7+ 293T; legend: CHO cells); B7-H7CRIg at 10 µg/ml"}, "[7]": {"biological_target": "T8, human B7-H3, 2Ig form, expressed on 293T cells (human, UniProt Q5ZPR3-2 29-316)", "T8 construct": "whole, on cells", "T8 sequence (looked up)": "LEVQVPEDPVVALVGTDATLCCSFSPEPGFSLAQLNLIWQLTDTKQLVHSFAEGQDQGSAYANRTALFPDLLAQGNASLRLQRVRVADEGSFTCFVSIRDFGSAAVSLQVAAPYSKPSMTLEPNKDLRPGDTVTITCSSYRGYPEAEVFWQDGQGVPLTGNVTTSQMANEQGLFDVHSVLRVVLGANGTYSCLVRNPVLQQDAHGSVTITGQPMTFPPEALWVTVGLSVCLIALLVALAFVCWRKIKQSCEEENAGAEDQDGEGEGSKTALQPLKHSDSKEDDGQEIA", "assay": "flow cytometry on 293T cells transfected with B7-H3 (2Ig)"}, "[8]": {"biological_target": "T9, human B7-H3, 4Ig form, expressed on 293T cells (human, UniProt Q5ZPR3 29-534)", "T9 construct": "whole, on cells", "T9 sequence (looked up)": "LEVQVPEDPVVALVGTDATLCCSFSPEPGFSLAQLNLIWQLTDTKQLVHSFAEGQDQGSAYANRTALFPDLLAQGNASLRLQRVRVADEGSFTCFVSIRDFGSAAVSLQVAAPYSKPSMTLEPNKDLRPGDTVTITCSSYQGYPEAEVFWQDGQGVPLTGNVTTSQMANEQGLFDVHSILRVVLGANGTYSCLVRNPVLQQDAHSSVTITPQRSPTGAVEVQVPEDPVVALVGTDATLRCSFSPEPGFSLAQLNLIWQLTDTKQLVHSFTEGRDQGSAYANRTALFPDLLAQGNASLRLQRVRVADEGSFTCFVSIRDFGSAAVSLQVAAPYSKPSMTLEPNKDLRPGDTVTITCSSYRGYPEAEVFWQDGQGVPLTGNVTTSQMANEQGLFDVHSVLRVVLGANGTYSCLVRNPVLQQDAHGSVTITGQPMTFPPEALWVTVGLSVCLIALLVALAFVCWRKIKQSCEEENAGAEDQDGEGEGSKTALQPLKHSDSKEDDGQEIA", "assay": "flow cytometry on 293T cells transfected with B7-H3 (4Ig)"}, "[9]": {"biological_target": "T10, human B7-DC expressed on 293T cells (human, UniProt Q9BQ51 20-273)", "T10 construct": "whole, on cells", "T10 sequence (looked up)": "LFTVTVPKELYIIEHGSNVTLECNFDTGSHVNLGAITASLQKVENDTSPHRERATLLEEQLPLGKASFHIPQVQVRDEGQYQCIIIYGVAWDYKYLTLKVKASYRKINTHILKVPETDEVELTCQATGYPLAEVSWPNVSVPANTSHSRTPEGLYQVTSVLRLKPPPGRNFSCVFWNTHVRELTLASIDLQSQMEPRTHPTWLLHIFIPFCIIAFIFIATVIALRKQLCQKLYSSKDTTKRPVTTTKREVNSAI", "assay": "flow cytometry on 293T cells transfected with B7-DC"}, "[10]": {"biological_target": "T11, human B7-H2, full length, expressed on cells (B7-H2+293T cells) (human, UniProt O75144 19-302)", "T11 construct": "This id also stands for endogenous B7-H2 on monocyte-derived dendritic cells in the functional rows; also called ICOSL; ICOSLG", "T11 sequence": "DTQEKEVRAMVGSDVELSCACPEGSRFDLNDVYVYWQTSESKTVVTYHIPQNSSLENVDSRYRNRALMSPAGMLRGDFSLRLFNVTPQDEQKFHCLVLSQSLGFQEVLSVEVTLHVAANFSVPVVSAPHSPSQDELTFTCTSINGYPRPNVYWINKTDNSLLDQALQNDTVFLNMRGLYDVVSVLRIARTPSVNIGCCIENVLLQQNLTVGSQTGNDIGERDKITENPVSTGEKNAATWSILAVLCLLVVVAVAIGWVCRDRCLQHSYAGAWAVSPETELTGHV", "assay": "flow cytometry on 293T cells transfected with B7-H2"}, "[11]": {"biological_target": "T12, human B7-1 (CD80) expressed on 293T cells (human, UniProt P33681 35-288)", "T12 construct": "whole, on cells", "T12 sequence (looked up)": "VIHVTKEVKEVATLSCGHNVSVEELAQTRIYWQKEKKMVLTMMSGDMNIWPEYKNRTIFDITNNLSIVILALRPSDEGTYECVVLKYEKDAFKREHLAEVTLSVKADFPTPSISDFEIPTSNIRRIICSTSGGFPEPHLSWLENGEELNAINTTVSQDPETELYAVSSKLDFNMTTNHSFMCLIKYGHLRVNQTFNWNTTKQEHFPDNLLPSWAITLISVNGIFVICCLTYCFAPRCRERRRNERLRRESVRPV", "assay": "flow cytometry on 293T cells transfected with B7-1"}, "[12]": {"biological_target": "T13, human B7-2 (CD86, B70) expressed on 293T cells (human, UniProt P42081 24-329)", "T13 construct": "whole, on cells", "T13 sequence (looked up)": "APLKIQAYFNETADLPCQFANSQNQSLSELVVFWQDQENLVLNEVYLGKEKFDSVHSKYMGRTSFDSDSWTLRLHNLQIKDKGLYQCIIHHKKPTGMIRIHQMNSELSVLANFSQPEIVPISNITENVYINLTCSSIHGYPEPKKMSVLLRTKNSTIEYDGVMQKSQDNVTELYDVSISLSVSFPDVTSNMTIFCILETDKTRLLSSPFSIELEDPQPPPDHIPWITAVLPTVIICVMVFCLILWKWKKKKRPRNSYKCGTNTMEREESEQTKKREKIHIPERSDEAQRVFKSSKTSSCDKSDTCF", "assay": "flow cytometry on 293T cells transfected with B7-2"}, "[13]": {"biological_target": "T12, human B7-1 (CD80) expressed on 293T …", "assay": "CDS well image, 293T cells transfected with the human gene, stained with the human fusion protein"}, "[14]": {"biological_target": "T13, human B7-2 (CD86, B70) expressed on …", "assay": "CDS well image, 293T cells transfected with the human gene, stained with the human fusion protein"}, "[15]": {"biological_target": "T5, human B7-H1 expressed on 293T cells", "assay": "CDS well image, 293T cells transfected with the human gene, stained with the human fusion protein"}, "[16]": {"biological_target": "T10, human B7-DC expressed on 293T cells", "assay": "CDS well image, 293T cells transfected with the human gene, stained with the human fusion protein"}, "[17]": {"biological_target": "T11, human B7-H2, full length, expressed on …", "assay": "flow cytometry on 293T cells transfected with full length human B7-H2; B7-2Ig alone"}}, "data": [{"binder": "B1", "values": [{"measurement": "binding result", "setting": "[1]", "result": "binds"}, {"measurement": "binding result", "setting": "B7-DCIg", "result": "no binding"}, {"measurement": "binding result", "setting": "[2]", "result": "no binding"}, {"measurement": "binding result", "setting": "[3]", "result": "no binding"}, {"measurement": "binding result", "setting": "B7-H1Ig", "result": "no binding"}]}, {"binder": "B2", "values": [{"measurement": "binding result", "setting": "[4]", "result": "no binding (tested: 10 µg/ml)"}, {"measurement": "binding result", "setting": "[5]", "result": "no binding (tested: 10 µg/ml)"}, {"measurement": "binding result", "setting": "[6]", "result": "binds"}, {"measurement": "binding result", "setting": "[7]", "result": "no binding (tested: 10 µg/ml)"}, {"measurement": "binding result", "setting": "[8]", "result": "no binding (tested: 10 µg/ml)"}, {"measurement": "binding result", "setting": "[9]", "result": "no binding (tested: 10 µg/ml)"}, {"measurement": "binding result", "setting": "[10]", "result": "no binding (tested: 10 µg/ml)"}, {"measurement": "binding result", "setting": "[11]", "result": "no binding (tested: 10 µg/ml)"}, {"measurement": "binding result", "setting": "[12]", "result": "no binding (tested: 10 µg/ml)"}]}, {"binder": "B3", "values": [{"measurement": "binding result", "setting": "[13]", "result": "no binding"}, {"measurement": "binding result", "setting": "[14]", "result": "no binding"}, {"measurement": "binding result", "setting": "[15]", "result": "no binding"}, {"measurement": "binding result", "setting": "[16]", "result": "no binding"}, {"measurement": "binding result", "setting": "[17]", "result": "no binding"}]}]}
